Experimental data: patent US20140274782A1, “AFFINITY REAGENTS AND METHODS FOR DETECTION, PURIFICATION, AND PROTEOMIC ANALYSIS OF METHYLATED PROTEINS” (The Board of Trustees of the Leland Stanford Junior …, priority 2013, published 2014)
Values belong to the molecule of their own block, whether it stands above or below them.

Tests used:
3×MBT domain of L3MBTL1 = assay: Triple SILAC pull-down, 3xMBT/3xMBTD355N ratio (cytoplasmic, nuclear and chromatin fractions of 293T cells); type: binding, human; conditions: SILAC ratio, pull-down 3xMBT vs 3xMBTD355N; for 3xMBT/D355N UNC Heavy: experiment with UNC0638 in heavy SILAC media; for 3xMBT/D355N UNC Light: experiment with UNC0638 in light SILAC media;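 as to all read-outs here: proteins quantified with MaxQuant, requiring at least two unique peptides and quantification in both label directions, normalized to the mean of proteins from a digested loading control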
G9a and GLP = target: T1, G9a and GLP (Homo sapiens, UniProt Q96KQ7+Q9H9B1); assay: Triple SILAC pull-down after UNC0638 treatment of 293T cells, DMSO/UNC0638 ratio of protein captured by 3×MBT; type: cell-based; parameters: cells were treated for 24 hours with UNC0638 at 2.5 μM or DMSO vehicle control; endogenous in cells; host or cells: HEK 293T; conditions: for Relative to UNC0638 UNC Heavy / Relative to UNC0638 UNC Light: SILAC ratio DMSO/UNC0638 of protein pulled down with 3xMBT; for Relative to UNC0638 UNC Heavy: UNC0638 in heavy SILAC media; for Relative to UNC0638 UNC Light: UNC0638 in light SILAC media; for Relative to UNC0638 Average: average of UNC Light and UNC Heavy experiments;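 as to all read-outs here: mass spectrometry (Q-Exactive) SILAC quantitation, DMSO/UNC0638 ratio computed after subtracting 3×MBTD355N mutant pull-down background, only proteins with at least twofold 3×MBT over mutant signal considered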
T1 sequence (Q96KQ7 2-1210 limits assumed): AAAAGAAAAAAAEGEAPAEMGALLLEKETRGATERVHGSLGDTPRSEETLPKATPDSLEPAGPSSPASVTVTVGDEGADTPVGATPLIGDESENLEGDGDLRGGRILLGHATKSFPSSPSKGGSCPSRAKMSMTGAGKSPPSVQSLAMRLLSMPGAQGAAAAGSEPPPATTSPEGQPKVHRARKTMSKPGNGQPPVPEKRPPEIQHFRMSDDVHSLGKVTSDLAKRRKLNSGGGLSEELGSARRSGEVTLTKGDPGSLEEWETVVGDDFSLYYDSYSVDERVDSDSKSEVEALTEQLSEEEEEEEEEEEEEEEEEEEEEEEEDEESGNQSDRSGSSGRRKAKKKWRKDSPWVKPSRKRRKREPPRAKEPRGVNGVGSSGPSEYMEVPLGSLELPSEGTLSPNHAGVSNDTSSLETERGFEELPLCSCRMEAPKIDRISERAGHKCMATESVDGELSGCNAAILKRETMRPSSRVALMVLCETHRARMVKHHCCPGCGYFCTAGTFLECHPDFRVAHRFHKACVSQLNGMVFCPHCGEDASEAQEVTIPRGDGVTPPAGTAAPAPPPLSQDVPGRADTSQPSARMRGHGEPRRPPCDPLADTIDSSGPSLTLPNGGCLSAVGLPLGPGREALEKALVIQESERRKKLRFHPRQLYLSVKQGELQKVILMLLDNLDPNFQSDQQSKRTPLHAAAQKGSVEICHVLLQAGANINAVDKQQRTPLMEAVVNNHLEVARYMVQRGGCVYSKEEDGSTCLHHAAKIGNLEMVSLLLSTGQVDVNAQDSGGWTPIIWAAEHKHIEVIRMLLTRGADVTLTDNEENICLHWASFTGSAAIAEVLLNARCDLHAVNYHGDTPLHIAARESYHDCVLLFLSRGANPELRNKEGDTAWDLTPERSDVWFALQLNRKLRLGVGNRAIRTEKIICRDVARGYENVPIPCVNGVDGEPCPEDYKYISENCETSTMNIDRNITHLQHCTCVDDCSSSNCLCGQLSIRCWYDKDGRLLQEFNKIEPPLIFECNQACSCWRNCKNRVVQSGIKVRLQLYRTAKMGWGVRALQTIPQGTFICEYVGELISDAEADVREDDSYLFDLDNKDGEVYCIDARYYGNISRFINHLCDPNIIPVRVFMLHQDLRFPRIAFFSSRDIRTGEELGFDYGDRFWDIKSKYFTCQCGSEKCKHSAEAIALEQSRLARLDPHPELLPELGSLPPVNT
T1 sequence (Q9H9B1 2-1298 limits assumed): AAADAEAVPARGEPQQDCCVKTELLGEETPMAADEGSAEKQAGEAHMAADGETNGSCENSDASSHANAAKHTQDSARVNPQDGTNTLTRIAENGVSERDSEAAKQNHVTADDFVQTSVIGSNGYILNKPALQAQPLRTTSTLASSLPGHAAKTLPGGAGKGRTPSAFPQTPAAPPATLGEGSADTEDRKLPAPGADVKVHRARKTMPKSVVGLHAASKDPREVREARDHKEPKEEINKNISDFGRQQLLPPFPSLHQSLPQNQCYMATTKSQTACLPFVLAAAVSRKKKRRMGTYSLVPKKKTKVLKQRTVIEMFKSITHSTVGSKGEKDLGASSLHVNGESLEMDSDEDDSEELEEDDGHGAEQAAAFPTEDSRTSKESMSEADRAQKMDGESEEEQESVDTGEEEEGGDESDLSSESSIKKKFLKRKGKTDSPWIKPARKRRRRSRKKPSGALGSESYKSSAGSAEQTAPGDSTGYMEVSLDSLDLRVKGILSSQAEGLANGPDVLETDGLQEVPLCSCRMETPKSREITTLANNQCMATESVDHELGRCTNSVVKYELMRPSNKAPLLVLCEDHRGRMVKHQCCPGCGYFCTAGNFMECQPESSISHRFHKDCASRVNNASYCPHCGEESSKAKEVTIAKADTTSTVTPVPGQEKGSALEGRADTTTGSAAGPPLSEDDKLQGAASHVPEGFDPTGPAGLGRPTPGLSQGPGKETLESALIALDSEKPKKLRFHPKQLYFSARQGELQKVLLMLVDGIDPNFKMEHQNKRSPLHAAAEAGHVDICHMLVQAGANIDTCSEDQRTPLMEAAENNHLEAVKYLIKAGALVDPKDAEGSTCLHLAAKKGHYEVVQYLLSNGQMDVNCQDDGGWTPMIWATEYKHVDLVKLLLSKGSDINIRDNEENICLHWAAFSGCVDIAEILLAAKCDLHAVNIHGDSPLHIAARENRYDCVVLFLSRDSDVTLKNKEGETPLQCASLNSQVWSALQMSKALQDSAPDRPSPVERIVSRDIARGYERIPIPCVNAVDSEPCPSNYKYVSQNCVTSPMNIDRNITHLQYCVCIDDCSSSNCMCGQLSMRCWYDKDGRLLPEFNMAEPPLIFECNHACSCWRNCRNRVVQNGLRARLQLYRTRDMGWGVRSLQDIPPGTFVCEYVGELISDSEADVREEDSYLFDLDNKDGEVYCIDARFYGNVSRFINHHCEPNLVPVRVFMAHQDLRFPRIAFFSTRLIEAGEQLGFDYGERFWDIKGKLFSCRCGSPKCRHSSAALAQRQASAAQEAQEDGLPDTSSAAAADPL

B2: RBM3 (protein, UniProt P98179 1-157, looked up)
RNA-binding protein 3: MSSEEGKLFVGGLNFNTDEQALEDHFSSFGPISEVVVVKDRETQRSRGFGFITFTNPEHASVAMRAMNGESLDGRQIRVDHAGKSARGTRGGGFGAHGRGRSYSRGGGDQGYGSGRYYDSRPGGYGYGYGRSRDYNGRNQGGYDRYSGGNYRDNYDN
3xMBT/D355N UNC Heavy (3×MBT domain of L3MBTL1): 3.49 log base 2
3xMBT/D355N UNC Light (3×MBT domain of L3MBTL1): 3.25 log base 2
Relative to UNC0638 UNC Heavy (G9a and GLP): 0.24 log base 2
Relative to UNC0638 UNC Light (G9a and GLP): 0.33 log base 2
Relative to UNC0638 Average (G9a and GLP): 0.29 log base 2

B3: PRPF40A (protein, UniProt O75400 1-957, looked up)
Pre-mRNA-processing factor 40 …: MRPGTGAERGGLMVSEMESHPPSQGPGDGERRLSGSSLCSGSWVSADGFLRRRPSMGHPGMHYAPMGMHPMGQRANMPPVPHGMMPQMMPPMGGPPMGQMPGMMSSVMPGMMMSHMSQASMQPALPPGVNSMDVAAGTASGAKSMWTEHKSPDGRTYYYNTETKQSTWEKPDDLKTPAEQLLSKCPWKEYKSDSGKPYYYNSQTKESRWAKPKELEDLEGYQNTIVAGSLITKSNLHAMIKAEESSKQEECTTTSTAPVPTTEIPTTMSTMAAAEAAAAVVAAAAAAAAAAAAANANASTSASNTVSGTVPVVPEPEVTSIVATVVDNENTVTISTEEQAQLTSTPAIQDQSVEVSSNTGEETSKQETVADFTPKKEEEESQPAKKTYTWNTKEEAKQAFKELLKEKRVPSNASWEQAMKMIINDPRYSALAKLSEKKQAFNAYKVQTEKEEKEEARSKYKEAKESFQRFLENHEKMTSTTRYKKAEQMFGEMEVWNAISERDRLEIYEDVLFFLSKKEKEQAKQLRKRNWEALKNILDNMANVTYSTTWSEAQQYLMDNPTFAEDEELQNMDKEDALICFEEHIRALEKEEEEEKQKSLLRERRRQRKNRESFQIFLDELHEHGQLHSMSSWMELYPTISSDIRFTNMLGQPGSTALDLFKFYVEDLKARYHDEKKIIKDILKDKGFVVEVNTTFEDFVAIISSTKRSTTLDAGNIKLAFNSLLEKAEAREREREKEEARKMKRKESAFKSMLKQAAPPIELDAVWEDIRERFVKEPAFEDITLESERKRIFKDFMHVLEHECQHHHSKNKKHSKKSKKHHRKRSRSRSGSDSDDDDSHSKKKRQRSESRSASEHSSSAESERSYKKSKKHKKKSKKRRHKSDSPESDAEREKDKKEKDRESEKDRTRQRSESKHKSPKKKTGKDSGNWDTSGSELSEGELEKRRRTLLEQLDDDQ
3xMBT/D355N UNC Heavy (3×MBT domain of L3MBTL1): 3.54 log base 2
3xMBT/D355N UNC Light (3×MBT domain of L3MBTL1): 2.13 log base 2
Relative to UNC0638 UNC Heavy (G9a and GLP): 0.33 log base 2
Relative to UNC0638 UNC Light (G9a and GLP): 0.24 log base 2
Relative to UNC0638 Average (G9a and GLP): 0.29 log base 2

More lines, main results first:

Relative to UNC0638 UNC Heavy (G9a and GLP): 0.51 log base 2
Relative to UNC0638 UNC Light (G9a and GLP): 0.05 log base 2
Relative to UNC0638 Average (G9a and GLP): 0.28 log base 2
B1: CNBP (protein, UniProt P62633 2-177, looked up)
CCHC-type zinc finger nucleic …: SSNECFKCGRSGHWARECPTGGGRGRGMRSRGRGGFTSDRGFQFVSSSLPDICYRCGESGHLAKDCDLQEDACYNCGRGGHIAKDCKEPKREREQCCYNCGKPGHLARDCDHADEQKCYSCGEFGHIQKDCTKVKCYRCGETGHVAINCSKTSEVNCYRCGESGHLARECTIEATA
3xMBT/D355N UNC Heavy (3×MBT domain of L3MBTL1): 1.05 log base 2
3xMBT/D355N UNC Light (3×MBT domain of L3MBTL1): 1.79 log base 2

Relative to UNC0638 UNC Heavy (G9a and GLP): 0.17 log base 2
Relative to UNC0638 UNC Light (G9a and GLP): 0.33 log base 2
Relative to UNC0638 Average (G9a and GLP): 0.25 log base 2
B4: SF3B2 (protein, UniProt Q13435 1-895, looked up)
Splicing factor 3B subunit 2: MATEHPEPPKAELQLPPPPPPGHYGAWAAQELQAKLAEIGAPIQGNREELVERLQSYTRQTGIVLNRPVLRGEDGDKAAPPPMSAQLPGIPMPPPPLGLPPLQPPPPPPPPPPGLGLGFPMAHPPNLGPPPPLRVGEPVALSEEERLKLAQQQAALLMQQEERAKQQGDHSLKEHELLEQQKRAAVLLEQERQQEIAKMGTPVPRPPQDMGQIGVRTPLGPRVAAPVGPVGPTPTVLPMGAPVPRPRGPPPPPGDENREMDDPSVGPKIPQALEKILQLKESRQEEMNSQQEEEEMETDARSSLGQSASETEEDTVSVSKKEKNRKRRNRKKKKKPQRVRGVSSESSGDREKDSTRSRGSDSPAADVEIEYVTEEPEIYEPNFIFFKRIFEAFKLTDDVKKEKEKEPEKLDKLENSAAPKKKGFEEEHKDSDDDSSDDEQEKKPEAPKLSKKKLRRMNRFTVAELKQLVARPDVVEMHDVTAQDPKLLVHLKATRNSVPVPRHWCFKRKYLQGKRGIEKPPFELPDFIKRTGIQEMREALQEKEEQKTMKSKMREKVRPKMGKIDIDYQKLHDAFFKWQTKPKLTIHGDLYYEGKEFETRLKEKKPGDLSDELRISLGMPVGPNAHKVPPPWLIAMQRYGPPPSYPNLKIPGLNSPIPESCSFGYHAGGWGKPPVDETGKPLYGDVFGTNAAEFQTKTEEEEIDRTPWGELEPSDEESSEEEEEEESDEDKPDETGFITPADSGLITPGGFSSVPAGMETPELIELRKKKIEEAMDGSETPQLFTVLPEKRTATVGGAMMGSTHIYDMSTVMSRKGPAPELQGVEVALAPEELELDPMAMTQKYEEHVREQQAQVEKEDFSDMVAEHAAKQKQKKRKAQPQDSRGGSKKYKEFKF
3xMBT/D355N UNC Heavy (3×MBT domain of L3MBTL1): 3.89 log base 2
3xMBT/D355N UNC Light (3×MBT domain of L3MBTL1): 3.33 log base 2
